The labels stand for the following.
B1: humanized XT-M4 hVH-V2.0 / hVL-V2.7 (antibody, human IgG1, V domains shown)
VH: EVQLVESGGGLVQPGGSLRLSCAASGFTFNNYWMTWVRQAPGKGLEWVASIDNSGDNTYYPDSVKDRFTISRDNAKNSLYLQMNSLRAEDTAVYYCARGGDITTGFDYWGQGTLVTVSS
VL: DIQMTQSPSSLSASVGDRVTITCRASQDVGIYVNWYQQKPGKAPKRLIYRATNLADGVPSRFSGSGSGTDFTLTISSLQPEDFATYYCLEFDEHPLTFGGGTKVEIK
B2: humanized XT-M4 hVH-V2.0 / hVL-V2.11 (antibody, human IgG1, V domains shown)
VH: B1 VH
VL: B1 VL with Y36F, K45R, G66R
B3: humanized XT-M4 hVH-V2.0 / hVL-V2.13 (antibody, human IgG1, V domains shown)
VH: B1 VH
VL: B1 VL with G66R
B4: humanized XT-M4 hVH-V2.0 / hVL-V2.14 (antibody, human IgG1, V domains shown)
VH: B1 VH
VL: B1 VL with Y36F, G66R
B5: humanized XT-M4 hVH-V2.0 / hVL-V2.4 (antibody, human IgG1, V domains shown)
VH: B1 VH
VL: B1 VL with R46L, G66R
B6: humanized XT-M4 hVH-V2.0 / hVL-V2.12 (antibody, human IgG1, V domains shown)
VH: B1 VH
VL: B1 VL with K45R, G66R
B7: humanized XT-M4 hVH-V1.0 / hVL-V2.7 (antibody, human IgG1, V domains shown)
VH: B1 VH with D52N, A88S
VL: B1 VL
B8: humanized XT-M4 hVH-V1.0 / hVL-V2.4 (antibody, human IgG1, V domains shown)
VH: B1 VH with D52N, A88S
VL: B1 VL with R46L, G66R
B9: V2.0 (R40, Y46, I48, A71, K73) / v3.0 DPK24 grafted (antibody, V domains shown)
VH: QVQLVQSGAEVKKPGASVKVSCKASGYTFTTYWMHWVRQRPGQGLYWIGYINPSTGYTEYNQKFKDRVTMTADTSISTAYMELSRLRSDDTAVYYCARWAGYTIDYWGQGTLVTVSS
VL: DIVMTQSPDSLAVSLGERATINCKSTKSLLNSDGFTYLDWYQQKPGQPPKLLIYLVSDRFSGVPDRFSGSGSGTDFTLTISSLQAEDVAVYYCFQSNSLPLTFGGGTKVEIK
notes: XT-H2 construct expressed in COS cells; also called XT-H2 hVH V2.0 + hVL V3.0
B10: V2.1 (R40A) / v3.0 (antibody, V domains shown)
VH: B9 VH with R40A
VL: B9 VL
notes: XT-H2 construct expressed in COS cells; also called XT-H2 hVH V2.1 + hVL V3.0
B11: V2.2 (Y46E) / v3.0 (antibody, V domains shown)
VH: B9 VH with Y46E
VL: B9 VL
notes: XT-H2 construct expressed in COS cells; also called XT-H2 hVH V2.2 + hVL V3.0
B12: V2.3 (I48M) / v3.0 (antibody, V domains shown)
VH: B9 VH with I48M
VL: B9 VL
notes: XT-H2 construct expressed in COS cells; also called XT-H2 hVH V2.3 + hVL V3.0
B13: mVH / v2.0 (V2, L4, S48) (antibody, V domains shown)
VH: QVQLQQSGAELAKPGASVKMSCKASGYTFTTYWMHWVKQRPGQGLYWIGYINPSTGYTEYNQKFKDKATLTADKSSSTAYMQLSSLTSEDSAVYYCARWAGYTIDYWGQGTSVTVSS
VL: DVVLTQTPLSLSVTPGQPASISCKSTKSLLNSDGFTYLDWYLQKPGQSPQLLIYLVSDRFSGVPDRFSGSGSGTDFTLKISRVEAEDVGVYYCFQSNSLPLTFGGGTKVEIK
notes: XT-H2 construct expressed in COS cells; also called XT-H2 mVH + hVL V2.0
B14: V2.0 (R40, Y46, I48, A71, K73) / v2.0 (V2, L4, S48) (antibody, V domains shown)
VH: B9 VH
VL: B13 VL
notes: XT-H2 construct expressed in COS cells; also called XT-H2 hVH V2.0 + hVL V2.0
B15: V2.0 (R40, Y46, I48, A71, K73) / v2.1 (V2I, L4M) (antibody, V domains shown)
VH: B9 VH
VL: B13 VL with V2I, L4M
notes: XT-H2 construct expressed in COS cells; also called XT-H2 hVH V2.0 + hVL V2.1
B16: V2.1 (R40A) / v2.0 (antibody, V domains shown)
VH: B9 VH with R40A
VL: B13 VL
notes: XT-H2 construct expressed in COS cells; also called XT-H2 hVH V2.1 + hVL V2.0
B17: V2.3 (I48M) / mVL (antibody, V domains shown)
VH: B9 VH with I48M
VL: B13 VL with S12P, T14N, P15I, Q17D, P18Q, K79T, V88L, G105S, V109L
notes: XT-H2 construct expressed in COS cells; also called XT-H2 hVH V2.3 + mVL
B18: V2.2 (Y46E) / mVL (antibody, V domains shown)
VH: B9 VH with Y46E
VL: B13 VL with S12P, T14N, P15I, Q17D, P18Q, K79T, V88L, G105S, V109L
notes: XT-H2 construct expressed in COS cells; also called XT-H2 hVH V2.2 + mVL
B19: V2.3 (I48M) / v2.0 (antibody, V domains shown)
VH: B9 VH with I48M
VL: B13 VL
notes: XT-H2 construct expressed in COS cells; also called XT-H2 hVH V2.3 + hVL V2.0
B20: V2.1 (R40A) / v2.1 (antibody, V domains shown)
VH: B9 VH with R40A
VL: B13 VL with V2I, L4M
notes: XT-H2 construct expressed in COS cells; also called XT-H2 hVH V2.1 + hVL V2.1
B21: V2.1 (R40A) / mVL (antibody, V domains shown)
VH: B9 VH with R40A
VL: B13 VL with S12P, T14N, P15I, Q17D, P18Q, K79T, V88L, G105S, V109L
notes: XT-H2 construct expressed in COS cells; also called XT-H2 hVH V2.1 + mVL
B22: V2.2 (Y46E) / v2.0 (antibody, V domains shown)
VH: B9 VH with Y46E
VL: B13 VL
notes: XT-H2 construct expressed in COS cells; also called XT-H2 hVH V2.2 + hVL V2.0
B23: V2.2 (Y46E) / v2.1 (antibody, V domains shown)
VH: B9 VH with Y46E
VL: B13 VL with V2I, L4M
notes: XT-H2 construct expressed in COS cells; also called XT-H2 hVH V2.2 + hVL V2.1
B24: V2.0 (R40, Y46, I48, A71, K73) / mVL (antibody, V domains shown)
VH: B9 VH
VL: B13 VL with S12P, T14N, P15I, Q17D, P18Q, K79T, V88L, G105S, V109L
notes: XT-H2 construct expressed in COS cells; also called XT-H2 hVH V2.0 + mVL
B25: V2.3 (I48M) / v2.1 (antibody, V domains shown)
VH: B9 VH with I48M
VL: B13 VL with V2I, L4M
notes: XT-H2 construct expressed in COS cells; also called XT-H2 hVH V2.3 + hVL V2.1
B26: XT-H2 VH-VL ScFv construct (scFv)
scFv: QVQLQQSGAELAKPGASVKMSCKASGYTFTTYWMHWVKQRPGQGLYWIGYINPSTGYTEYNQKFKDKATLTADKSSSTAYMQLSSLTSEDSAVYYCARWAGYTIDYWGQGTSVTVSSDGGGSGGGGSGGGGSSDVVLTQTPLSLPVNIGDQASISCKSTKSLLNSDGFTYLDWYLQKPGQSPQLLIYLVSDRFSGVPDRFSGSGSGTDFTLTISRVEAEDLGVYYCFQSNSLPLTFGSGTKLEIK
notes: Flag tag inferred from detection
B27: XT-M4 VH-VL ScFv construct (scFv)
scFv: EVQLVESGGGLVQPGRSLKLSCVVSGFTFNNYWMTWIRQTPGKGLEWVASINNSGDNTYYPDSVKDRFTISRDNAKSTLYLQMNSLRSEDTATYYCTRGGDITTGFDYWGQGVMVTVSSDGGGSGGGGSGGGGSSDIQMTQSPSSMSVSLGDTITITCRASQDVGIYVNWFQQKPGKSPRRMIYRATNLADGVPSRFSGSRSGSIYSLTISSLESEDVADYHCLEFDEHPLTFGSGTKVEIK
notes: as for B26

Positions count from the first letter of the chain named. In names and notes the source's numbering stands. Several values for one entry are separate records, joined by “and”; a condition that tells them apart may be missing. Equal entries are not always repeated.

The text below walks through data of patent publication US20070286858A1 (Pfizer, published 2007).

For one experiment, the target named is T1, human RAGE-Fc fusion protein (human, UniProt Q15109 23-344).
T1 construct: also called hRAGE-Fc; huRAGE-Fc; not shown: Fc domain of human IgG
As to the kind of experiment: competition ELISA on coated hRAGE-Fc; competitor 12.5 ng/ml biotinylated rat XT-M4. The method, then:
ELISA plates were coated overnight with 1 ug/ml human RAGE-Fc. […] Briefly, plates were coated overnight with 1 ug/ml human RAGE-Fc.
Turning to B1, the half-maximal inhibitory concentration (IC50) is 8.5 µg/mL.

On to B2, for which the 50% inhibitory concentration (IC50) is 0.15 to 1.05 µg/mL and 0.1 to 0.45 µg/mL. On the same count and under the same terms, the figure for B3 is 1.5 µg/mL; for B4 it is 0.2 µg/mL.

B5 had an IC50 of 2.9 µg/mL. Still for that read-out and setting: the figure for B6 is 2.7 µg/mL; for B7 it is 4 to 9.5 µg/mL; for B8 it is 4.5 to 8.5 µg/mL.

The next experiment deals with T1, human RAGE-Fc fusion protein. As to the kind of experiment: competition ELISA on human RAGE-Fc; labelled competitor not named. A general note: ELISA stands for enzyme-linked immunosorbent assay.
B9 registered an ED50 of 8 nM.

Consider B10, for which the ED50 was 5 nM. In turn, B11 displayed an ED50 of 5 nM. The same measure, in the same setting: as for B12, the figure is 5 nM; as for B13, 7 nM.

With B14, the ED50 is 5 nM.

B15: the ED50 amounted to 5 nM. For B16, the ED50 came to 4 nM. B17 returned an ED50 of 10 nM. On the same count and under the same terms, the figure for B18 is 6 nM; for B19 it is 4.5 nM. The same measure, in the same setting: the figure for B20 is 7.5 nM. In turn, B21 registered an ED50 of 8 nM.

As to B22, the ED50 came to 4 nM. On the same count and under the same terms, as for B23, the figure is 5 nM; as for B24, 8 nM. Turning to B25, the ED50 was 5 nM.

The target is the same in another experiment. As to the kind of experiment: ELISA of in vitro translated ScFv on coated human RAGE-Fc, anti-Flag detection. The method, then:
ELISA plates coated with human RAGE-Fc (5 ug/ml) or BSA (200 ug/ml) in bicarbonate buffer overnight at 4° C., washed with PBS+tween 0.05% and blocked for 1 hour at room temperature with 2% milk powder PBS. Plates were incubated with in vitro translated ScFv for 2 hours at room temp. Plates were blocked and detection was with anti-Flag antibody (1/1000 dilution) followed by rabbit anti-mouse HRP (1/1000 dilution). […] Values for Kd of the ScFv in both formats as determined by BIACORE™ are used to determine the optimum antigen concentrations for selection experiments.
For the molecule B26, the binding result is given as “binds”. As to B27, the binding result is given as “binds”.

The term IC50 denotes the point on the concentration scale where inhibition reaches its midpoint. Low readings indicate inhibition by little substance, high ones a need for much substance.
